{"source": "paper PMC2760748", "key": {"His-p53": {"test_system": "His-p53", "assay": "DNA-protein ELISA", "details": "EMSA: 100 ng p53 (or 5 ug KB nuclear extract), 3 ng probe, 30 min at RT, 4% native PAGE with 0.5x TBE, buffer per ref [25]; ELISA: p53 in PBS on PAb421, 0.5 ug …"}, "GST-p53": {"test_system": "GST-p53", "assay": "DNA-protein ELISA", "details": "EMSA: 100 ng p53 (or 5 ug KB nuclear extract), 3 ng probe, 30 min at RT, 4% native PAGE with 0.5x TBE, buffer per ref [25]; ELISA: p53 in PBS on PAb421, 0.5 ug …"}}}
{"substance": "biotin-p21-5'-DBS", "values": [{"measurement": "binding signal (% protection of DBS binding)", "setting": "His-p53", "value": 60}, {"measurement": "binding signal (% protection of DBS binding)", "setting": "GST-p53", "value": 60}]}
